Assay results taken from PMC8639217, “Structure of New Binary and Ternary DNA Polymerase Complexes From Bacteriophage RB69”.

Biological target: T1, RB69 DNA polymerase exo- (RB69pol) (Enterobacteria phage RB69, UniProt Q38087 1-903, D222A;D327A)
T1 sequence: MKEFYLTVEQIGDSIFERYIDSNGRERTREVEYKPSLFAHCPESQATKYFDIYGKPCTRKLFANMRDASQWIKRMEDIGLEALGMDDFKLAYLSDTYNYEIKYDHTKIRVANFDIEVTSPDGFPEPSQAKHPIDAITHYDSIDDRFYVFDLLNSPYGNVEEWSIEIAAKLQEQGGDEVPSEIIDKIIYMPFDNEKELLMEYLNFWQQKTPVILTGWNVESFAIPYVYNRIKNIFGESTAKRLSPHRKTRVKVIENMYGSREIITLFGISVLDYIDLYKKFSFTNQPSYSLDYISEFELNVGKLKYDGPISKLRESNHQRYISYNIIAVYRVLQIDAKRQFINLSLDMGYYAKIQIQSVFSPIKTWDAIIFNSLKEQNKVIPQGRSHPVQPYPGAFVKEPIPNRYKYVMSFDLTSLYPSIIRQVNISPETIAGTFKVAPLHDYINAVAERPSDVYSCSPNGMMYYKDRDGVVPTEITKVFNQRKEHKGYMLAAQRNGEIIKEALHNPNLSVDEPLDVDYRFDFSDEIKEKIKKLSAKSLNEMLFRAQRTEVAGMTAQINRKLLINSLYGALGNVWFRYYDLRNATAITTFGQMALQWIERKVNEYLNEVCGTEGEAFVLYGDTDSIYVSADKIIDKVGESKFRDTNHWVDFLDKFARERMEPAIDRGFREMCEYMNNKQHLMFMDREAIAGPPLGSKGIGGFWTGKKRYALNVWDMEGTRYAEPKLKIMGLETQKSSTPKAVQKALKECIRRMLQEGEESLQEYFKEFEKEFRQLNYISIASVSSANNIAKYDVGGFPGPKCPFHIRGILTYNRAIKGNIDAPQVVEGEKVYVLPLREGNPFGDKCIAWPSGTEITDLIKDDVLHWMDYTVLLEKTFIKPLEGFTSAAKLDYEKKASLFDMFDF
Test: X-ray crystallography (2.2 A); MolA: closed ternary complex with dUpNpp, single Ca2+ at B site; rGMP in NTD; Complex (1:1.2 protein:DNA) in 10 mM Tris-HCl pH 8.0, 50 mM NaCl, 10 mM CaCl2, 5 mM DTT, 5% glycerol, 1 mM dUpNpp, 12 h 4 C; crystals at 21 C in 50 mM Na cacodylate pH 5.0, 2-7% isopropanol, 5 mM MgCl2, 2 mM NaCl, 12 mM spermine
Settings: protein: recombinant; tags: N-terminal His6 removed with TEV protease; 15 bp; 5' overhang 1 nt on primer, 5' overhang 4 nt on template; 1:1

B1: primer/template (P/T) duplex (dsDNA)
DNA 1: GGAGCGGACTGCTTAC
DNA 2: TCAAGTAAGCAGTCCGCTC
**Q.** Does B1 bind?
**A.** Result: binds
